Results taken from US20230312646A1, “ANTIBACTERIAL PEPTIDES” (priority 2020, published 2023).
Read-outs that look alike come from different tables or passages of the source. Square brackets hold non-standard residues; d marks the D form. Cha = N[C@@H](CC1CCCCC1)C(=O)O

Key:
[1] = molecular target: T1, Escherichia coli sliding clamp (bacterial processivity factor, dnaN gene product) (Escherichia coli), P0A988; assay: kinITC
[2] = molecular target: T2, Pseudomonas aeruginosa sliding clamp (Pseudomonas aeruginosa), Q9I7C4; assay: ITC, 25 C
T2 chain: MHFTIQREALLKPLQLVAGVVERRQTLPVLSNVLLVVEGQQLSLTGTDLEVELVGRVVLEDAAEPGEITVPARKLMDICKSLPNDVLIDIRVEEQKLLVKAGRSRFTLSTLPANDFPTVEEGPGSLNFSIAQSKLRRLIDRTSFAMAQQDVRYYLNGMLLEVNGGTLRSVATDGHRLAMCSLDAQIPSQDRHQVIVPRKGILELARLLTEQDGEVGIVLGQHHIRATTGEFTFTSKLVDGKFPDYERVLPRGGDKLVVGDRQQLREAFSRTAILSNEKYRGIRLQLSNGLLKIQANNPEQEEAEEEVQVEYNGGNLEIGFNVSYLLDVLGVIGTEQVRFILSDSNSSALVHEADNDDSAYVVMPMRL

[3] = molecular target: T1, Escherichia coli sliding clamp …; assay: ITC, 25 C
[4] = molecular target: Acinetobacter baumannii sliding clamp (Acinetobacter baumannii); assay: ITC, 25 C
[5] = molecular target: T1, Escherichia coli sliding clamp …; assay: ITC, 25 C; remark: listed apart in the source

Ac-Q[Cha]DLF-OH [Ac-Gln-Cha-Asp-Leu-Phe-OH (peptide 1)]
koff [1]: 0.0074 s⁻¹
kon [1]: 40000 M⁻¹ s⁻¹
Kd [2]: 600 nM
Kd [3]: 170 nM
Kd [4]: 655 nM
Kd [5]: 194 nM
ΔG [5]: -9.2 kcal/mol
